Results as given in publication PMC10641286.
Read-outs that look alike come from different tables or passages of the source.

What was measured:
cathepsin G [1] = target: cathepsin G (UniProt P08311)
chymase [2] = target: chymase (UniProt P23946)
trypsin IV = trypsin IV (UniProt P35030)
chymase [3] = target: chymase (UniProt P23946); remark: listed apart in the source
cathepsin G [4] = target: cathepsin G (UniProt P08311); assay: stoichiometry of inhibition (residual enzymatic activity, colorimetric substrate); various concentrations of rIxsS41 (molar ratios 0-10) with a constant concentration of protease, 1 h at 37°C; linear regression of the inhibitory curve; settings: scale: molecules of rIxsS41 per molecule of protease
chymase [5] = target: chymase (UniProt P23946); assay: as above; settings: scale: molecules of rIxsS41 per molecule of protease
cathepsin G [6] = target: cathepsin G (UniProt P08311); assay: second-order rate constant of inhibition, discontinuous method (residual enzymatic activity); rIxsS41 25-300 nM (chymase) or 100-1600 nM (cathepsin G) pre-incubated 0-15 min at 37°C with constant protease (0.1 µg); kobs plotted against rIxsS41
chymase [7] = target: chymase (UniProt P23946); assay: as above
cathepsin G [8] = target: cathepsin G (UniProt P08311); assay: as above; remark: listed apart in the source
chymase [9] = target: chymase (UniProt P23946); assay: as above; remark: listed apart in the source

Chain of UniProt P08311 (P08311 21-244): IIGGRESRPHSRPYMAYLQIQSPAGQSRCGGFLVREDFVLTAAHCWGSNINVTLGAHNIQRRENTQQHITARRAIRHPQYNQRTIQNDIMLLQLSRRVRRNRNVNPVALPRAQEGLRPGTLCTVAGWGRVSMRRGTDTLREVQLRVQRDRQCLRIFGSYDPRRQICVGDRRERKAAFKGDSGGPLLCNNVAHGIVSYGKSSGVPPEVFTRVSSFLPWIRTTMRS
Chain of UniProt P23946 (P23946 22-247): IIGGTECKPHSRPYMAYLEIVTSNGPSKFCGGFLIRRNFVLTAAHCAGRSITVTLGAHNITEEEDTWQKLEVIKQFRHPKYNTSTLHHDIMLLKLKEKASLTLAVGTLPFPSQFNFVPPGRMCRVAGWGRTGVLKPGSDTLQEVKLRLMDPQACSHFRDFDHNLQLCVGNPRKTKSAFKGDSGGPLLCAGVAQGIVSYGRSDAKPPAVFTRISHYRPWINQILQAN
Chain of UniProt P35030 (P35030 81-304): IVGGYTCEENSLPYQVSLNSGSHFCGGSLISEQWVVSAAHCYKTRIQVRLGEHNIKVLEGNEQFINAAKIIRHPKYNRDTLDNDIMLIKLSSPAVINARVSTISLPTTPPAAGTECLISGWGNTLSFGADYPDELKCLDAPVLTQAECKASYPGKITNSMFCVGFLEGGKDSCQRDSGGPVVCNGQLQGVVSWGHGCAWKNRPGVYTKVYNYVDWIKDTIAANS

## recombinant Ixodes scapularis nymph tick saliva serpin 41 (rIxsS41) (natural protein)
Cathepsin G [1]
  inhibition of enzymatic activity (chromogenic substrate hydrolysis), rIxsS41 1 µM, cathepsin G 154.4 nM, pre-incubated 15 min at 37°C: 100%
Chymase [2]
  inhibition of enzymatic activity (chromogenic substrate hydrolysis), rIxsS41 1 µM, chymase 34.2 nM, pre-incubated 15 min at 37°C: 100%
chymotrypsin
  inhibition of enzymatic activity (chromogenic substrate hydrolysis), rIxsS41 1 µM, chymotrypsin 25.7 nM, pre-incubated 15 min at 37°C: 100%
Pancreatic trypsin
  inhibition of enzymatic activity (chromogenic substrate hydrolysis), rIxsS41 1 µM, pancreatic trypsin 0.5 nM, pre-incubated 15 min at 37°C: 100%
thrombin
  inhibition of enzymatic activity (chromogenic substrate hydrolysis), rIxsS41 1 µM, thrombin 19.8 nM, pre-incubated 15 min at 37°C: 100%
Trypsin IV
  inhibition of enzymatic activity (chromogenic substrate hydrolysis), rIxsS41 1 µM, trypsin IV 12.5 nM, pre-incubated 15 min at 37°C: 100%
Chymase [3]
  C48/80-induced (chymase-mediated) paw edema in BALB/c mice, co-injection of C48/80 (1 µg) with rIxsS41 (25 µg); the chymase is the mouse's own: 85%
Cathepsin G [4]
  stoichiometry of inhibition (SI): 2.2
Chymase [5]
  stoichiometry of inhibition (SI): 2.8
Cathepsin G [6]
  ka (second-order rate constant of inhibition): 2400 M⁻¹ s⁻¹
Chymase [7]
  ka (second-order rate constant of inhibition): 6600 M⁻¹ s⁻¹
Cathepsin G [8]
  ka (second-order rate constant of inhibition): 1700 M⁻¹ s⁻¹
Chymase [9]
  ka (second-order rate constant of inhibition): 2400 M⁻¹ s⁻¹
